Results as given in article PMC6945527 (European Heart Journal, 2019).

Columns and labels:
[1] = target: CAP1 of the surface plasmon resonance assay and of the binding-affinity measurement (UniProt Q01518)
[2] = target: PCSK9 WT of the binding-affinity measurement (Figure S2) (human, UniProt Q8NBP7 31-692)
[3] = target: PCSK9 A514T of the binding-affinity measurement (Figure S2) (human, UniProt Q8NBP7 31-692, A514T)
[4] = target: PCSK9 S668RG670E of the binding-affinity measurement (Figure S2) (human, UniProt Q8NBP7 31-692, S668R | G670E)
PCSK9 S668RG670E of the binding-affinity measurement (Figure S2), sequence (Q8NBP7 31-692 S668R/G670E): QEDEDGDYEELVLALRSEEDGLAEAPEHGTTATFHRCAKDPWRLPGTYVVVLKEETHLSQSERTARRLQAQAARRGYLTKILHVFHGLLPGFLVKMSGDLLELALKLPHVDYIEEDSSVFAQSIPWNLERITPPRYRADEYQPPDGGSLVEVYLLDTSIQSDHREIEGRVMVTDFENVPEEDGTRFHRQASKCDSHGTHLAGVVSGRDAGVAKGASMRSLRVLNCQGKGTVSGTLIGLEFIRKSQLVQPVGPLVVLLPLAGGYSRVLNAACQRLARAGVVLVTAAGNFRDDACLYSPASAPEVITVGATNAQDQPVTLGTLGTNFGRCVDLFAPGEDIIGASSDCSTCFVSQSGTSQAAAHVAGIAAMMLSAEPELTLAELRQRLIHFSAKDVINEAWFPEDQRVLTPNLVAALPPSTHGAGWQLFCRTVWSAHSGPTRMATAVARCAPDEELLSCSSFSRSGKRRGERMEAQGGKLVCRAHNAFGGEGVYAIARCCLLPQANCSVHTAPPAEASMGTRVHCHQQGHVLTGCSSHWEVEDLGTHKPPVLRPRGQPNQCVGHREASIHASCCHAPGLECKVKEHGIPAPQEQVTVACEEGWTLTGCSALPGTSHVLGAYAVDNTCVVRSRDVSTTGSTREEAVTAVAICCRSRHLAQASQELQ

PCSK9 WT of the binding-affinity measurement (Figure S2), sequence (Q8NBP7 31-692): as the sequence (Q8NBP7 31-692 S668R/G670E) above, with R638S, E640G counted along it
PCSK9 A514T of the binding-affinity measurement (Figure S2), sequence (Q8NBP7 31-692 A514T): as the sequence (Q8NBP7 31-692 S668R/G670E) above, with A484T, R638S, E640G counted along it

| Molecule | Kd [1] | Kd [2] | Kd [3] | Kd [4] |
| --- | --- | --- | --- | --- |
| PCSK9 G670E of the binding-affinity measurement (Figure S2) (from UniProt Q8NBP7 31-692) (natural protein) | 960 nM |  |  |  |
| CAP1 of the surface plasmon resonance assay and of the binding-affinity measurement (natural protein) MADMQNLVERLERAVGRLEAVSHTSDMHRGYADSPSKAGAAPYVQAFDSLLAGPVAEYLKISKEIGGDVQKHAEMVHTGLKLERALLVTASQCQQPAENKLSDLLAPISEQIKEVITFREKNRGSKLFNHLSAVSESIQALGWVAMAPKPGPYVKEMNDAAMFYTNRVLKEYKDVDKKHVDWVKAYLSIWTELQAYIKEFHTTGLAWSKTGPVAKELSGLPSGPSAGSCPPPPPPCPPPPPVSTISCSYESASRSSLFAQINQGESITHALKHVSDDMKTHKNPALKAQSGPVRSGPKPFSAPKPQTSPSPKRATKKEPAVLELEGKKWRVENQENVSNLVIEDTELKQVAYIYKCVNTTLQIKGKINSITVDNCKKLGLVFDDVVGIVEIINSKDVKVQVMGKVPTISINKTDGCHAYLSKNSLDCEIVSAKSSEMNVLIPTEGGDFNEFPVPEQFKTLWNGQKLVTTVTEIAG |  | 450 nM | 110 nM | 2320 nM |
